Results as given in publication PMC9004346 (2022).
Bridges are numbered along the chain shown (N, C = ends). Where no end group is shown, it is not given here. C4 = constraint linking the two cyclising residues; C5 = constraint linking the two cyclising residues; C7 = constraint linking the two cyclising residues

What was measured:
Experiment in all cases: fluorescence polarisation competition
[1] = target: T1, P2
T1 chain: Ac-LYGFKW-NH2

[2] = target: T2, P4
T2 chain: Ac-RLYGFKWH-NH2

[3] = target: T3, P1
T3 chain: Ac-RLYGFK-NH2

[4] = target: T4, P5C7 (linker 1-8 via C7; not fully specified (N-terminus, C-terminus); also: structure of constraint C7 not given here in text)
T4 chain: CRLYGFKC

[5] = target: T5, P7C8 (bridge 1-8; not fully specified (N-terminus, C-terminus, bridges); printed as C_C8_RLYGFKW_C8_; also: structure of constraint C8 not given here in text)
T5 chain: CRLYGFKW

[6] = target: T6, P3
T6 chain: Ac-RLYGFKW-NH2

[7] = target: T7, P5C5 (linker 1-8 via C5; not fully specified (N-terminus, C-terminus); also: structure of constraint C5 not given here in text)
T7 chain: CRLYGFKC

[8] = target: T8, P5C4 (linker 1-8 via C4; not fully specified (N-terminus, C-terminus); also: structure of constraint C4 not given here in text)
T8 chain: CRLYGFKC

B1: CK2α (protein)
chain: MSGPVPSRARVYTDVNTHRPREYWDYESHVVEWGNQDDYQLVRKLGRGKYSEVFEAINITNNEKVVVKILKPVKKKKIKREIKILENLRGGPNIITLADIVKDPVSRTPALVFEHVNNTDFKQLYQTLTDYDIRFYMYEILKALDYCHSMGIMHRDVKPHNVMIDHEHRKLRLIDWGLAEFYHPGQEYNVRVASRYFKGPELLVDYQMYDYSLDMWSLGCMLASMIFRKEPFFHGHDNYDQLVRIAKVLGTEDLYDYIDKYNIELDPRFNDILGRHSRKRWERFVHSENQHLVSPEALDFLDKLLRYDHQSRLTAREAMEHPYFYTVVKDQARMGSSSMPGGSTPVSSANMMSGISSVPTPSPLGPLAGSPVIAAANPLGMPVPAAAGAQQ
How did the IC50 [1] turn out when B1 was run?
The IC50 was 137 µM.

And the IC50 [2]?
Its IC50 is 16.7 µM.

What about the IC50 [3] of the same binder?
Its IC50 is over 500 µM.

What about the IC50 [4] of the same binder?
Its IC50 is 40 µM.

What about the IC50 [5] of the same binder?
Its IC50 is 15.6 µM.

What about the IC50 [6] of the same binder?
Its IC50 is 22.5 µM.

And the IC50 [7]?
The IC50 was 28.9 µM.

And the IC50 [8]?
Its IC50 is 54.6 µM.
